Laboratory results published in PMC7385124, “The molecular basis of thioalcohol production in human body odour” (Scientific Reports, 2020).

Target: the molecule itself
Test: crystal structure; BsPatB, sitting drop, 0.2 M ammonium acetate pH 7.1, 20% PEG 3,350

B1: Bacillus subtilis 168 PatB (PLP-bound C-S lyase) (enzyme)
chain: MGGGFAMNFDKREERLGTQSVKWDKTGELFGVTDALPMWVADMDFRAPEAITEALKERLDHGIFGYTTPDQKTKDAVCGWMQNRHGWKVNPESITFSPGVVTALSMAVQAFTEPGDQVVVQPPVYTPFYHMVEKNGRHILHNPLLEKDGAYAIDFEDLETKLSDPSVTLFILCNPHNPSGRSWSREDLLKLGELCLEHGVTVVSDEIHSDLMLYGHKHTPFASLSDDFADISVTCAAPSKTFNIAGLQASAIIIPDRLKRAKFSASLQRNGLGGLNAFAVTAIEAAYSKGGPWLDELITYIEKNMNEAEAFLSTELPKVKMMKPDASYLIWLDFSAYGLSDAELQQRMLKKGKVILEPGTKYGPGGEGFMRLNAGCSLATLQDGLRRIKAALSENLYFQG
modifications: PLP covalently bound to Lys234 (internal aldimine)
notes: N-terminal overhang from cloning into pBADcLIC; PatB (C-S lyase, cystathionine beta-lyase activity) of Bacillus subtilis 168, full-length gene; C-terminal linker of the vector before the His10 tag; also called BsPatB; source: E. coli MC1061, pBADcLIC, purified (HisTrap)
B1 was tested, and the “stoichiometry N” value was 2.
